Results published in IntAct's records for PubMed 16830178.

B1: Protein GRIP (Arabidopsis thaliana (Mouse-ear cress)), Q8S2T0 (parent)
chain: MSEDKESDVVGEEEESHVIKEDKELNDASNETLTENGDQLLQMIAELRLENDFLRSQFEGLKDEVAQGRSLQKAEQVEADSAQLKQLQEQVASLSREIDVEKQTRVAAEQALEHLREAYSEADAKSQEYSSKFSQVEQKLDQEIKERDEKYADLDAKFTRLHKRAKQRIQEIQKEKDDLDARFREVNETAERASSQHSSMQQELERTRQQANEALKAMDAERQQLRSANNKLRDTIEELRGSLQPKENKIETLQQSLLDKDQILEDLKKQLQAVEERKQIAVTELSAKHQKNLEGLEAQVVDALSERDKAAETISSLQVLLAEKESKIAEMEAAATGEAARLRAAAETLKGELAHLKSENEKEKETWEASCDALKSKLEIAESNYLQAEIEVAKMRSQLGSEMSMQTQILSTKDAELKGAREEINRLQSEFSSYKIRAHALLQKKDMELAAAKDSEQIKSLEEALKEAEKEVYLVSAERDRAQQDLQSALASLEKELEERAGALKDASEQIKSLEVKLDSTVARNQAEKQAWEEDLRVLEETWRRRCEALTAQNEASPAEGIEKELENAKLRNKRMKEEHESVRELADRLIEEKDREISRLVDEMTNLRKSMESKPVWNKSPSQVHHYGNNNTESQQQDVSNLSTSAAEHQILILARQQAQREEELAQTQRHILALQEEIEELERENRLHSQQEAVLKTELREMERKQKREGVDMTYLKNVILKLLETGEVEALLPVVGMLLQFSPEEIQKCQQAYHSSTTAATTTEATPSPASEGSGLSVFSRFSFS
partner: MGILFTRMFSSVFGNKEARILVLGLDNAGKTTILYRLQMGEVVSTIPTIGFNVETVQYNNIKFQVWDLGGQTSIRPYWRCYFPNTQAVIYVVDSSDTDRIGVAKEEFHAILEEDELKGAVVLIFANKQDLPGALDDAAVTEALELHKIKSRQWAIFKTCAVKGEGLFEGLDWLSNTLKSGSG
B2: ADP-ribosylation factor 3 (Arabidopsis thaliana (Mouse-ear cress)), P40940 (parent)
chain: B1 partner
partner: B1 chain

Variants of: B1
Details: with arf3_arath ARF3, P40940

| effect of a mutation on the interaction | Variant |
| --- | --- |
| decreasing interaction | Y717A |
| decreasing interaction | K719A |

Variants of: B2
Details: with grip_arath GRIP, Q8S2T0

| effect of a mutation on the interaction | Variant |
| --- | --- |
| decreasing interaction | F51G |
| decreasing interaction | Y81G |

Variants of: B2
Details: with grip_arath GRIP

| effect of a mutation on the interaction | Variant |
| --- | --- |
| disrupting interaction | F51G |
| disrupting interaction | Y81G |
